Results on one substance are retold here after patent US20220372484A1.

The assay deals with human FPR2 (transcript variant 1; Origene) fused with mGFP (human) (UniProt P25090). In words: cell-based or functional assay.

With “LL37 peptide (from UniProt P49913 134-170)”, the Inhibition (%) of forskolin-mediated cAMP production came to 46%.
